Drawing on patent publication US20190233512A1 (SUTRO BIOPHARMA, published 2019), this text covers Bmax for 14 molecules.

The chains are these.
B1: SRP1848-F04 (antibody, V domains shown)
VH: EVQLVESGGGLVQPGGSLRLSCAASGFNISNYSIHWVRQAPGKGLEWVGEIYPIDGITDYADSVKGRFTISADTSKNTAYLQMNSLRAEDTAVYYCARGSWFWRSGYGYYLDYWGQGTLVTVSS
VL: not shown
notes: VH/VL only; Fc-bearing IgG format with trastuzumab LC, HIS/FLAG-tagged, cell-free expressed; constant regions not tied; also called Antibody 39
B2: SRP1848-E05 (antibody, V domains shown)
VH: B1 VH with L20V, S30G, N31V, S33Y, E50G, Y52T, I54N, I57Y, S100F, F102A
VL: not shown
notes: VH/VL only; Fc-bearing IgG format with trastuzumab LC, HIS/FLAG-tagged, cell-free expressed; constant regions not tied; also called Antibody 34
B3: SRP1848-C03 (antibody, V domains shown)
VH: B1 VH with S30G, N31V, I57N, F102A, G108S
VL: not shown
notes: VH/VL only; Fc-bearing IgG format with trastuzumab LC, HIS/FLAG-tagged, cell-free expressed; constant regions not tied; also called Antibody 19
B4: SRP1848-A06 (antibody, V domains shown)
VH: B1 VH with S30G, Y32S, S33Y, E50G, Y52T, I57N, S100A, F102S, L111I
VL: not shown
notes: VH/VL only; Fc-bearing IgG format with trastuzumab LC, HIS/FLAG-tagged, cell-free expressed; constant regions not tied; also called Antibody 4
B5: SRP1848-A09 (antibody, V domains shown)
VH: B1 VH with S30R, N31K, Y32Q, E50S, Y52F, I54N, I57T, M83V, Y110F, D112E
VL: not shown
notes: VH/VL only; Fc-bearing IgG format with trastuzumab LC, HIS/FLAG-tagged, cell-free expressed; constant regions not tied; also called Antibody 7
B6: SRP1848-C07 (antibody, V domains shown)
VH: B1 VH with S30R, N31K, E50D, Y52F, V64M, F102S, R104P, S105A, L111Q
VL: not shown
notes: VH/VL only; Fc-bearing IgG format with trastuzumab LC, HIS/FLAG-tagged, cell-free expressed; constant regions not tied; also called Antibody 22
B7: SRP1848-A07 (antibody, V domains shown)
VH: B1 VH with S30G, N31Y, Y32H, Y52F, I54V, I57T, Q82H, S100F, F102A
VL: not shown
notes: VH/VL only; Fc-bearing IgG format with trastuzumab LC, HIS/FLAG-tagged, cell-free expressed; constant regions not tied; also called Antibody 5
B8: SRP1848-E01 (antibody, V domains shown)
VH: EVQLVESGGGLVQPGGSLRLSCAASGFNITNKYIHWVRQAPGKGLEWVGGITPFDGFTDYADSVKGRFTISADTSKNTAYLQMNSLRAEDTAVYYCARGSWSWPAGYGYYQDYWGQGTLVTVSS
VL: not shown
notes: VH/VL only; Fc-bearing IgG format with trastuzumab LC, HIS/FLAG-tagged, cell-free expressed; constant regions not tied; also called Antibody 31
B9: SRP1848-D09 (antibody, V domains shown)
VH: B1 VH with S33Y, E50G, Y52S, I54N, I57Y, F102S, S105H
VL: not shown
notes: VH/VL only; Fc-bearing IgG format with trastuzumab LC, HIS/FLAG-tagged, cell-free expressed; constant regions not tied; also called Antibody 29
B10: SRP1848-F08 (antibody, V domains shown)
VH: B1 VH with S25G, Y32H, L45V, I54V, Q82R, F102Y, R104Q, G108S
VL: not shown
notes: VH/VL only; Fc-bearing IgG format with trastuzumab LC, HIS/FLAG-tagged, cell-free expressed; constant regions not tied; also called Antibody 43
B11: SRP1848-C04 (antibody, V domains shown)
VH: B1 VH with S30R, N31H, I54G, D55P, I57N, W101L, F102S, S105A
VL: not shown
notes: VH/VL only; Fc-bearing IgG format with trastuzumab LC, HIS/FLAG-tagged, cell-free expressed; constant regions not tied; also called Antibody 20
B12: SRP1848-D07 (antibody, V domains shown)
VH: B1 VH with N31K, S33Y, E50G, Y52S, I54N, I57Y, T69A, S100F, F102A
VL: not shown
notes: VH/VL only; Fc-bearing IgG format with trastuzumab LC, HIS/FLAG-tagged, cell-free expressed; constant regions not tied; also called Antibody 28
B13: SRP1848-C05 (antibody, V domains shown)
VH: B1 VH with S30R, N31K, E50D, Y52F, T58N, F102S, R104K, S105A
VL: not shown
notes: VH/VL only; Fc-bearing IgG format with trastuzumab LC, HIS/FLAG-tagged, cell-free expressed; constant regions not tied; also called Antibody 21
B14: SRP1848-A04 (antibody, V domains shown)
VH: B1 VH with S30D, N31Q, Y32S, E50V, I54V, I57T, S100A, F102S, L111I
VL: not shown
notes: VH/VL only; Fc-bearing IgG format with trastuzumab LC, HIS/FLAG-tagged, cell-free expressed; constant regions not tied; also called Antibody 3

Substitutions are numbered along the chain they refer to.

T2 sequence (P15328 25-234 limits assumed): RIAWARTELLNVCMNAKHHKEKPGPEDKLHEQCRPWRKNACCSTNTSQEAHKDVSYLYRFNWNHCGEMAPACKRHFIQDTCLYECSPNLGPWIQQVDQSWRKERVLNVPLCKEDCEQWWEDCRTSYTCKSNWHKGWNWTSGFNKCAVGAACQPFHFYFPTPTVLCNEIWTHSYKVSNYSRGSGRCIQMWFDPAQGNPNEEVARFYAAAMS
T1 sequence (P15328 other isoform, or with tags, fused parts or gaps limits assumed): as the sequence (P15328 25-234 limits assumed) above, with I2T, W4R, R37K, Q117R, A146P, H171Y counted along it

One test addresses T1, Cynomolgus folate receptor alpha (cynomolgus monkey, UniProt P15328 25-234 (human entry)).
T1 construct: Stably expressed on CHO cells (CHO-cFOLR1); also called cynomolgus FOLR1; CHO-cFOLR1
As to the kind of experiment: FACS, CHO-cFOLR1 cells.
For the molecule B1, the Bmax stood at 26400 MFI.
The same measure, in the same setting: the same measure for B2: 28200 MFI; for B3: 25100 MFI.
Same read-out and setting: the same measure for B4: 20200 MFI; for B5: 20200 MFI; for B6: 18100 MFI.
Same read-out and setting: the same measure for B7: 23600 MFI; for B8: 22400 MFI; for B9: 21300 MFI.
Take B10: the Bmax came to 21000 MFI.
On the same count and under the same terms, the same measure for B11: 22000 MFI; for B12: 24300 MFI.
Consider B13, for which the Bmax is 15200 MFI.
The same measure, in the same setting: the same measure for B14: 23100 MFI.

A further test addresses T2, Human folate receptor alpha (hFOLR1) (human, UniProt P15328 25-234).
T2 construct: Stably expressed on CHO cells (CHO-hFOLR1) for flow cytometry; endogenous on FOLR1-positive KB and Igrov1 cells in the killing assay; also called human FOLR1; FolRα
Description: FACS, CHO-hFOLR1 cells. The procedure: CHO cells were transfected to stably express human (CHO-hFOLR1), cynomolgus (CHO-cFOLR1), or mouse (CHO-mFOLR1) target molecule FOLR1 on the cell surface. Parental CHO cells were used as a negative control to determine background binding levels. Parental CHO and stably transfected CHO-hFOLR1, CHO-cFOLR1, and CHO-mFOLR1 cells were cultured in Ham's F-12: high glucose DMEM (50:50) (Corning, Cellgro-Mediatech) supplemented with 10% heat-inactivated fetal bovine serum (Corning, Cellgro-Mediatech), 1% Penicillin/Streptomycin (Corning, Cellgro-Mediatech) and 2 mmol/L-glutamax (Life Technology).
A mixture of fluoresecent-labeled parental CHO cells and unlabeled CHO-hFOLRlcells were prepared as follows. Parental CHO cells were washed twice in PBS and incubated in PBS containing with 1 nM CellTrace™ Oregon Green488® (Life Technologies) at 37° C. for 30 minutes. Labeled parental CHO cells were then washed 2× with Ham's F-12 media and 2× with FACS buffer (PBS with 1% bovine serum albumin). Unlabeled CHO-hFOLR1 cells were similarly washed and prepared. Labeled parental CHO and unlabeled CHO-hFOLR1 cells were combined at 1:1 ratio and seeded at 50 μL per well (200,000 cells per well) in 96 well polypropylene plates. Cells were mixed with 50 μL of test antibodies (i.e., anti-FOLR1 variants) serially diluted in FACS buffer and incubated on ice for 60 mins. Cells were washed with FACS buffer and incubated on ice for 60 mins with 100 μL FACS buffer containing 2.5 μg/mL R-Phycoerythrin-conjugated goat anti-Human IgG (Jackson ImmunoResearch Laboratories, West Grove, Pa.). Cells were washed twice with FACS buffer, fixed in 2% paraformaldehyde in PBS (Santa Cruz Biotechnology; Dallas, Tex.) for 10 mins on ice in the dark, and analyzed using the BD LSR II Flow Cytometer (BD Biosciences; San Jose, Calif.). Data were analyzed using FlowJo® software (FlowJo, LLC; Ashland, Oreg.) to determine mean fluorescence intensities. Binding constants were calculated using the statistical software, GraphPad Prism (GraphPad Software; La Jolla, Calif.) using the nonlinear regression equation, one site-specific binding with Hill slope. Secondary antibody alone was used as a control, in addition to measuring non-specific antibody binding to CHO parental cells.
For orientation: In flow cytometry, cells or beads pass a laser one at a time.
On to B1, for which the Bmax is 26900 MFI.
Still for that read-out and setting: the same measure for B2: 27300 MFI.
On the same count and under the same terms, the same measure for B3: 29100 MFI.
The same measure, in the same setting: the same measure for B4: 24500 MFI; for B5: 28900 MFI; for B6: 28800 MFI.
In the case of B7, the Bmax was 29200 MFI.
In the case of B8, the Bmax was 26400 MFI.
The same measure, in the same setting: the same measure for B9: 25000 MFI.
As for B10, the Bmax is 26500 MFI.
Still for that read-out and setting: the same measure for B11: 26300 MFI; for B12: 25700 MFI.
On the same count and under the same terms, the same measure for B13: 26800 MFI.
B14 yielded a Bmax of 26800 MFI.

For a further test, the target named is T3, Murine folate receptor alpha (mouse, UniProt P35846 25-232).
T3 construct: Stably expressed on CHO cells (CHO-mFOLR1); also called mouse FOLR1; CHO-mFOLR1
T3 sequence (P35846 25-232 limits assumed): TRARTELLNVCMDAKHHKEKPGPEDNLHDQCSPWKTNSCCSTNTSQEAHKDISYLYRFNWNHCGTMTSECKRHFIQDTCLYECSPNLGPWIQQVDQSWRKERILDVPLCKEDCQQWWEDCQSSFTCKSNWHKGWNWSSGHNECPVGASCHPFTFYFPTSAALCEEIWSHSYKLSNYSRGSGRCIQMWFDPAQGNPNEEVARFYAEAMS
Description: FACS, CHO-mFOLR1 cells.
The molecule B1 yielded a Bmax of 2740 MFI.
Still for that read-out and setting: the same measure for B3: 3310 MFI; for B4: 2770 MFI.
On the same count and under the same terms, the same measure for B5: 7990 MFI.
For the molecule B6, the Bmax was 3170 MFI.
On the same count and under the same terms, the same measure for B7: 9650 MFI; for B11: 2510 MFI; for B13: 4130 MFI.
Still for that read-out and setting: the same measure for B14: 3890 MFI.
